Blank lines part the entries; values can stand above or below the binder they belong to.
Assays:
HLA-A*0301 [1] = molecular target: T1, HLA-A*0301 (human); assay: competitive inhibition of 125I-labelled standard peptide binding to purified HLA-A*0301, gel filtration; standard 941.12 [..] (11 nM)
T1 construct: also called HLA-A3

[2] = molecular target: T2, HLA-A*0101 (purified HLA class I molecule) (human); assay: competition with 125I-labelled standard peptide on purified HLA-A*0101, gel filtration
T2 construct: also called HLA-A1

HLA-A*0301 [3] = molecular target: T3, HLA-A*0301 (human); assay: inhibition of 125I-labelled probe peptide binding to purified HLA-A*0301, gel filtration; ratio to standard peptide 941.12 [..] (11 nM)
T3 construct: also called HLA-A3

HLA-A*0201 = molecular target: T4, HLA-A*0201 (human); assay: inhibition of 125I-labelled probe peptide binding to purified HLA, gel filtration
T4 construct: also called HLA-A2.1

HLA-B*0702 = HLA-B*0702 (human); assay: competition vs 125I-labelled probe peptide, purified HLA, gel filtration
HLA-B*3501 = HLA-B*3501 (human); assay: as above
HLA-B*5101 = HLA-B*5101 (human); assay: as above
HLA-B*5301 = HLA-B*5301 (human); assay: as above
HLA-B*5401 = HLA-B*5401 (human); assay: as above

Binder: ILKETELRK (Synthetic peptide) [HER2/neu peptide, position 714, 9 amino acids]
relative binding ratio (IC50 of standard peptide / IC50 of test peptide) (HLA-A*0301 [1]): 0.019 ratio

Binder: RVLQGLPREY [HER2/neu peptide, position 545, 10 amino acids]
relative binding ratio (IC50 of standard peptide / IC50 of test peptide) [2]: 0.0015 ratio

B1: HER2/neu peptide, position 674, 10 amino acids (peptide)
peptide: LIKRRQQKIR
notes: Synthetic peptide; also called Her2/neu.674 (10-mer)
relative binding ratio (IC50 of standard peptide / IC50 of test peptide) (HLA-A*0301 [3]): 0.0002

Binder: VVGILLVVV (Synthetic peptide) [HER2/neu peptide, position 658, 9 amino acids]
relative binding ratio (HLA-A*0201): 0.0005 ratio (IC50 of standard peptide / IC50 of test peptide)

Binder: VVVLGVVFGI (Synthetic peptide) [HER2/neu peptide, position 664, 10 amino acids]
relative binding ratio (HLA-A*0201): 0.0032 ratio (IC50 of standard peptide / IC50 of test peptide)

B3: HER2/neu peptide, position 745, 9 amino acids (peptide)
peptide: NVKIPVAIK
notes: Synthetic peptide; also called Her2/neu.745 (9-mer)
relative binding ratio (IC50 of standard peptide / IC50 of test peptide) (HLA-A*0301 [3]): 0.0058

B4: HER2/neu peptide, position 167, 9 amino acids (peptide)
peptide: ILWKDIFHK
notes: Synthetic peptide; also called Her2/neu.167
relative binding ratio (IC50 of standard peptide / IC50 of test peptide) (HLA-A*0301 [1]): 0.28 ratio

B5: HER2/neu peptide, position 360, 9 amino acids (peptide)
peptide: NIQEFAGCK
notes: Synthetic peptide; also called Her2/neu.360 (9-mer)
relative binding ratio (IC50 of standard peptide / IC50 of test peptide) (HLA-A*0301 [3]): 0.0002

Binder: VVGILLVVVL (Synthetic peptide) [HER2/neu peptide, position 658, 10 amino acids]
relative binding ratio (HLA-A*0201): 0.0009 ratio (IC50 of standard peptide / IC50 of test peptide)

Binder: KIRKYTMR (Synthetic peptide) [HER2/neu peptide, position 681, 8 amino acids]
relative binding ratio (IC50 of standard peptide / IC50 of test peptide) (HLA-A*0301 [1]): 0.001 ratio

B11: HER2/neu peptide, position 478, 10 amino acids (peptide)
peptide: HTVPWDQLFR
notes: Synthetic peptide; also called Her2/neu.478
relative binding ratio (IC50 of standard peptide / IC50 of test peptide) (HLA-A*0301 [1]): 0.0035 ratio

Binder: LACHQLCAR (Synthetic peptide) [HER2/neu peptide, position 509, 9 amino acids]
relative binding ratio (IC50 of standard peptide / IC50 of test peptide) (HLA-A*0301 [1]): -0.0002 ratio

B12: HER2/neu peptide, position 181, 10 amino acids (peptide)
peptide: LTLIDTNRSR
notes: Synthetic peptide; also called Her2/neu.181 (10-mer)
relative binding ratio (IC50 of standard peptide / IC50 of test peptide) (HLA-A*0301 [3]): 0.0002

B13: HER2/neu peptide, position 452, 10 amino acids (peptide)
peptide: WLGLRSLREL
notes: Synthetic peptide; also called HER2/neu 452-461
relative binding ratio (HLA-A*0201): 0.0001 ratio (IC50 of standard peptide / IC50 of test peptide)

B15: HER2/neu peptide, position 154, 10 amino acids (peptide)
peptide: LIQRNPQLCY
notes: Synthetic peptide; also called Her2/neu.154 (10-mer)
relative binding ratio (IC50 of standard peptide / IC50 of test peptide) (HLA-A*0301 [3]): 0.0012

Binder: CSKPCARVCY [HER2/neu peptide, position 334, 10 amino acids]
relative binding ratio (IC50 of standard peptide / IC50 of test peptide) [2]: 0.0016 ratio

Binder: VLQGLPREYV (Synthetic peptide) [HER2/neu peptide, position 546, 10 amino acids]
relative binding ratio (HLA-A*0201): 0.0009 ratio (IC50 of standard peptide / IC50 of test peptide)

Second part, the binder after the results:

relative binding ratio (IC50 of standard peptide / IC50 of test peptide) (HLA-A*0301 [1]): 0.0009 ratio
Binder: KIPVAIKVLR (Synthetic peptide) [HER2/neu peptide, position 747, 10 amino acids]

relative binding ratio (IC50 of standard peptide / IC50 of test peptide) [2]: 0.0082 ratio
Binder: ELMTFGAKPY [HER2/neu peptide, position 914, 10 amino acids]

relative binding ratio (IC50 of standard peptide / IC50 of test peptide) (HLA-A*0301 [3]): 0.0002
B2: HER2/neu peptide, position 1014, 10 amino acids (peptide)
peptide: MGDLVDAEEY
notes: Synthetic peptide; also called Her2/neu.1014 (10-mer)

relative binding ratio (IC50 of standard peptide / IC50 of test peptide) (HLA-A*0301 [1]): 0.38 ratio
Binder: KVLRENTSPK (Synthetic peptide) [HER2/neu peptide, position 753, 10 amino acids]

IC50 (HLA-B*0702): 6.5 nM
IC50 (HLA-B*3501): 600 nM
IC50 (HLA-B*5101): 7.1 nM
IC50 (HLA-B*5301): 282 nM
IC50 (HLA-B*5401): 3.8 nM
B6: Her2/neu.1155.F1I9 (peptide)
peptide: FPLPAARPI
notes: 9-mer analog of the HER2/neu peptide starting at position 1155

IC50 (HLA-B*0702): 39 nM
IC50 (HLA-B*3501): 4240 nM
IC50 (HLA-B*5101): 13 nM
IC50 (HLA-B*5301): 332 nM
IC50 (HLA-B*5401): 50 nM
B7: Her2/neu.1157.F1I11 (peptide)
peptide: FPAARPAGATI
notes: 11-mer analog of the HER2/neu peptide starting at position 1157

relative binding ratio (IC50 of standard peptide / IC50 of test peptide) (HLA-A*0301 [3]): 0.004
B8: HER2/neu peptide, position 841, 9 amino acids (peptide)
peptide: LVHRDLAAR
notes: Synthetic peptide; also called Her2/neu.841 (9-mer)

IC50 (HLA-B*0702): 42 nM
IC50 (HLA-B*3501): 400 nM
IC50 (HLA-B*5101): 324 nM
IC50 (HLA-B*5301): 1190 nM
IC50 (HLA-B*5401): 2.7 nM
B9: Her2/neu.998.F1 (peptide)
peptide: FPLDSTFYRSL
notes: 11-mer analog of the HER2/neu peptide starting at position 998

IC50 (HLA-B*0702): 20 nM
IC50 (HLA-B*3501): 7200 nM
IC50 (HLA-B*5101): 20 nM
IC50 (HLA-B*5301): 620 nM
IC50 (HLA-B*5401): 3.4 nM
B10: Her2/neu.1151.F1I10 (peptide)
peptide: FPREGPLPAI
notes: 10-mer analog of the HER2/neu peptide starting at position 1151

relative binding ratio (IC50 of standard peptide / IC50 of test peptide) [2]: 0.016 ratio
Binder: PTHDPSPLQRY (H is used here) [HER2/neu peptide, position 1102, 11 amino acids]

relative binding ratio (IC50 of standard peptide / IC50 of test peptide) (HLA-A*0301 [3]): 0.0017
B14: HER2/neu peptide, position 960, 9 amino acids (peptide)
peptide: MIDSECRPR
notes: Synthetic peptide; also called Her2/neu.960 (9-mer)

relative binding ratio (IC50 of standard peptide / IC50 of test peptide) [2]: 0.0072 ratio
Binder: PLTCSPQPEY [HER2/neu peptide, position 1130, 10 amino acids]

Reference: US20040018971A1 (published 2004)
